Experiments:
[1] = target: T1, purified wild-type CDC45, O75419
T1 chain: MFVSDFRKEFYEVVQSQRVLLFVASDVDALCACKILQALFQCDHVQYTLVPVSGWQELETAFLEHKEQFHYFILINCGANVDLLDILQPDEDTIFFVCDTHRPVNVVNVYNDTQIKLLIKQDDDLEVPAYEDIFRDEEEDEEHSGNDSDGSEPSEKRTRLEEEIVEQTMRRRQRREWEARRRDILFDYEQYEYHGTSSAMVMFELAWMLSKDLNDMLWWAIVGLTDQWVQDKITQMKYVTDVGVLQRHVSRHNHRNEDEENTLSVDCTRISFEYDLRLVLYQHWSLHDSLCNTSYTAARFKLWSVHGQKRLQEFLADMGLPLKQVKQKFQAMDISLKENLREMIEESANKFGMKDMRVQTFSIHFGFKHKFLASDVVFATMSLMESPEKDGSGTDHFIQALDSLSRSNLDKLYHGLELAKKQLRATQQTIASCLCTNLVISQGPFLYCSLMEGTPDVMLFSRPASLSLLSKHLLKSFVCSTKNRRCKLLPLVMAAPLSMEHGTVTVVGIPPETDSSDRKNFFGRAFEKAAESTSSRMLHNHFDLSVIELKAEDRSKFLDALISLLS

[2] = target: SUMO-PDHK1 (wild type), bacterially purified, Q15118
Sequence of SUMO-PDHK1 (wild type), bacterially purified, Q15118 (Q15118 whole entry, looked up): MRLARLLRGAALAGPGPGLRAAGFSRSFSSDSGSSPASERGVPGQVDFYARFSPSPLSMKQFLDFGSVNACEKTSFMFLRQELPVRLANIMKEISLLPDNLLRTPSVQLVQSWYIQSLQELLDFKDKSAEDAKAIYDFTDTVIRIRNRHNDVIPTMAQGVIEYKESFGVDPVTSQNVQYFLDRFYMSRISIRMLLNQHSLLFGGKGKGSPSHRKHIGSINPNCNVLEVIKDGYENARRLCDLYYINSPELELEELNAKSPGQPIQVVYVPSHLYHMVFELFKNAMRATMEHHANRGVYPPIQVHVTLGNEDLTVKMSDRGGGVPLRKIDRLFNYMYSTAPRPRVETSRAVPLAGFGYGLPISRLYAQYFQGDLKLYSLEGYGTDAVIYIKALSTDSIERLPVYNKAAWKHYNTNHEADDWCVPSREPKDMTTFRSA

[3] = target: purified Beclin-1 S30A mutant, Q14457
Sequence of purified Beclin-1 S30A mutant, Q14457 (Q14457 whole entry S30A): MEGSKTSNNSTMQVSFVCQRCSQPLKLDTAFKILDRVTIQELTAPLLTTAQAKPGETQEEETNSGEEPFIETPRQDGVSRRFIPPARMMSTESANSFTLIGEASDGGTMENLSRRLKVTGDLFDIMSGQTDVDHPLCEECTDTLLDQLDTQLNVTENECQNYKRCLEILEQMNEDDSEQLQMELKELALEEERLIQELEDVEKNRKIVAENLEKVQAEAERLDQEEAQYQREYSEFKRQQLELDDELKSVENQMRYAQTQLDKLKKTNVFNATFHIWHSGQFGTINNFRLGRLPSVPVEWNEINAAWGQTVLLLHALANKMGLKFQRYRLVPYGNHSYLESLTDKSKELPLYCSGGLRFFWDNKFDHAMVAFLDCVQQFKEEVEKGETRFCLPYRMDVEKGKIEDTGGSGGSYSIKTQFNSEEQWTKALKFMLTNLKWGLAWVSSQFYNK

[4] = target: purified wild-type Beclin-1, Q14457
Sequence of purified wild-type Beclin-1, Q14457 (Q14457 whole entry, looked up): as the sequence (Q14457 whole entry S30A) above, with A30S counted along it

[5] = target: purified PDHK1 T338A (pE-SUMO PDHK1 T338A), Q15118
Sequence of purified PDHK1 T338A (pE-SUMO PDHK1 T338A), Q15118 (Q15118 whole entry T338A): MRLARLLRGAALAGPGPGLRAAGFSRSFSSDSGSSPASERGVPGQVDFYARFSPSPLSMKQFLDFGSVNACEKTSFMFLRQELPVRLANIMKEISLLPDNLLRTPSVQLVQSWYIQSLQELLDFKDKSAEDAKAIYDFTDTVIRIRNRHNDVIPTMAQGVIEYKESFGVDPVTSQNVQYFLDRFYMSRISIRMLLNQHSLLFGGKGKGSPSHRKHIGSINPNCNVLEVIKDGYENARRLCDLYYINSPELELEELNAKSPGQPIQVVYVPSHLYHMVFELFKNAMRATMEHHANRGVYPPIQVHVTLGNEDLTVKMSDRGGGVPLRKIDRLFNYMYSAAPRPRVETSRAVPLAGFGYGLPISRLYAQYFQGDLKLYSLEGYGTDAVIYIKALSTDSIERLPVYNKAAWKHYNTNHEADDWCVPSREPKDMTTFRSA

[6] = target: T2, purified CDC45 S386A, O75419
T2 chain: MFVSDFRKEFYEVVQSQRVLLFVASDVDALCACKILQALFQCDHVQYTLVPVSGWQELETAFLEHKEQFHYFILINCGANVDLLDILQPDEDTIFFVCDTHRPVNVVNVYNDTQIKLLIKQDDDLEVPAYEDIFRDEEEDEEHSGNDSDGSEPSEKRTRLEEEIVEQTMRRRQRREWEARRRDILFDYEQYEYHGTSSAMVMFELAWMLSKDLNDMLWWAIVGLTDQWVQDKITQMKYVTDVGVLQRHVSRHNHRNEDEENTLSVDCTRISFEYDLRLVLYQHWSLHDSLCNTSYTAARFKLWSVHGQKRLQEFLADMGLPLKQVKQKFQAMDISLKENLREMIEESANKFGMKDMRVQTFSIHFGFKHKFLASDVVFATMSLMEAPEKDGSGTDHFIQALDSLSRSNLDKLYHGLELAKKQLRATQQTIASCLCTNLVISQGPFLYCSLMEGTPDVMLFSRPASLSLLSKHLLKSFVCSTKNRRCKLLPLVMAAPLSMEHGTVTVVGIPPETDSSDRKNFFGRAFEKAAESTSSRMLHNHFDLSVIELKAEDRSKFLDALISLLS

[7] = target: purified PDHK1 S337A, Q15118
Sequence of purified PDHK1 S337A, Q15118 (Q15118 whole entry S337A): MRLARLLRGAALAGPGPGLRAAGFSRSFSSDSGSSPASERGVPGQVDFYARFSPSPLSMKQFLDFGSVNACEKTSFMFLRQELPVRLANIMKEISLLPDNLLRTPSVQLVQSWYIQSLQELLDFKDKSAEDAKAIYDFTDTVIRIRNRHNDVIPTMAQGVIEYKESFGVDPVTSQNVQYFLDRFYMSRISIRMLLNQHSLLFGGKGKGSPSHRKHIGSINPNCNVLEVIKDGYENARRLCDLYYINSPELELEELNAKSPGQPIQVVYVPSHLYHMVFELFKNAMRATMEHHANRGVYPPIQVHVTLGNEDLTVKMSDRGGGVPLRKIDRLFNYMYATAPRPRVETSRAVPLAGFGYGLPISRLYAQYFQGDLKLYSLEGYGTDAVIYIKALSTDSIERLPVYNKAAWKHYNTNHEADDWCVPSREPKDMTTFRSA

B1: His-PGK1 (wild type), bacterially purified, not phosphorylated (protein)
chain: MSLSNKLTLDKLDVKGKRVVMRVDFNVPMKNNQITNNQRIKAAVPSIKFCLDNGAKSVVLMSHLGRPDGVPMPDKYSLEPVAVELKSLLGKDVLFLKDCVGPEVEKACANPAAGSVILLENLRFHVEEEGKGKDASGNKVKAEPAKIEAFRASLSKLGDVYVNDAFGTAHRAHSSMVGVNLPQKAGGFLMKKELNYFAKALESPERPFLAILGGAKVADKIQLINNMLDKVNEMIIGGGMAFTFLKVLNNMEIGTSLFDEEGAKIVKDLMSKAEKNGVKITLPVDFVTADKFDENAKTGQATVASGIPAGWMGLDCGPESSKKYAEAVTRAKQIVWNGPVGVFEWEAFARGTKALMDEVVKATSRGCITIIGGGDTATCCAKWNTEDKVSHVSTGGGASLELLEGKVLPGVDALSNI
In the case of B1, the “in vitro phosphorylation with [γ32P]-ATP, autoradiography and Western blot” value [1] is reported as “Purified wild-type PGK1 but not PGK1 kinase-dead (KD) mutant phosphorylated purified wild-type CDC45, but not CDC45 S386A”, the “in vitro phosphorylation with [γ32P]-ATP, autoradiography and anti-phospho-PDHK1 T338 antibody” value [2] is reported as “WT PGK1, but not a PGK1 T378P kinase-dead mutant, was able to phosphorylate WT PDHK1, but not PDHK1 T338A” and the “in vitro phosphorylation with [γ32P]-ATP, autoradiography and Western blot” value [3] is reported as “Beclin-1 S30A mutant was largely resistant to phosphorylation by PGK1”. For the same protein, the “in vitro phosphorylation with [γ32P]-ATP, autoradiography and Western blot” value [4] was “Purified PGK1 phosphorylated purified wild-type Beclin-1”, the “in vitro phosphorylation with [γ32P]-ATP, autoradiography and anti-phospho-PDHK1 T338 antibody” value [5] was “WT PGK1, but not a PGK1 T378P kinase-dead mutant, was able to phosphorylate WT PDHK1, but not PDHK1 T338A” and the “in vitro phosphorylation with [γ32P]-ATP, autoradiography and Western blot” value [6] was “Purified wild-type PGK1 but not PGK1 kinase-dead (KD) mutant phosphorylated purified wild-type CDC45, but not CDC45 S386A”. For the same protein, the “in vitro phosphorylation with [γ32P]ATP, autoradiography” value [7] was “mutation of the adjacent PDHK1 S337A had no effect on PGK1-mediated PDHK1 phosphorylation”.

B2: purified PGK1 T378P kinase-dead mutant (protein)
chain: MSLSNKLTLDKLDVKGKRVVMRVDFNVPMKNNQITNNQRIKAAVPSIKFCLDNGAKSVVLMSHLGRPDGVPMPDKYSLEPVAVELKSLLGKDVLFLKDCVGPEVEKACANPAAGSVILLENLRFHVEEEGKGKDASGNKVKAEPAKIEAFRASLSKLGDVYVNDAFGTAHRAHSSMVGVNLPQKAGGFLMKKELNYFAKALESPERPFLAILGGAKVADKIQLINNMLDKVNEMIIGGGMAFTFLKVLNNMEIGTSLFDEEGAKIVKDLMSKAEKNGVKITLPVDFVTADKFDENAKTGQATVASGIPAGWMGLDCGPESSKKYAEAVTRAKQIVWNGPVGVFEWEAFARGTKALMDEVVKATSRGCITIIGGGDTAPCCAKWNTEDKVSHVSTGGGASLELLEGKVLPGVDALSNI
B2 was tested, and the “in vitro phosphorylation with [γ32P]-ATP, autoradiography and Western blot” value [1] was “Purified wild-type PGK1 but not PGK1 kinase-dead (KD) mutant phosphorylated purified wild-type CDC45, but not CDC45 S386A” and the “in vitro phosphorylation with [γ32P]-ATP, autoradiography and anti-phospho-PDHK1 T338 antibody” value [2] was “WT PGK1, but not a PGK1 T378P kinase-dead mutant, was able to phosphorylate WT PDHK1, but not PDHK1 T338A”.

Source: patent US20180011102
